Consider four substances from patent publication US20060246084A1.

In test [1] the target is IFN-γ C-terminal peptide … (human).
Test [2] concerns the target IFN-γ receptor on human cells (no IFN-γ added) (human) (UniProt P15260). Nature of the test: 125I-LcrV68-326 alone on U937 cells.
Test [3] shares this target. Nature of the test: 125I-LcrV68-326 alone on human neutrophils.
The target is the same in test [4]. As to the kind of experiment: 125I-LcrV68-326 alone on human monocytes.
Test [5] shares this target. As to the kind of experiment: 125I-LcrV68-326 alone on human thymocytes.
Test [6] concerns the target human TLR-2 receptor on CD14-positive human thymic epithelial VTEC2.HS cells (human) (UniProt O60603). Nature of the test: Scatchard analysis, 125I radioligand on VTEC2.HS cells.
For test [7], the target named is receptors of human cells in the presence of IFN-α2 (human) (UniProt P01563). Nature of the test: 125I-LcrV68-326 plus unlabelled IFN-α2 on human neutrophils.
For test [8] the target is unchanged. Nature of the test: 125I-LcrV68-326 plus unlabelled IFN-α2 on human monocytes.
Test [9] concerns the target synthetic fragment of the mouse TLR-2 extracellular domain (mouse).
For test [10], the target named is receptors of human cells in the presence of IFN-α2 (human) (UniProt P01563). Nature of the test: 125I-LcrV68-326 plus unlabelled IFN-α2 on human thymocytes.
For test [11] the target is unchanged. As to the kind of experiment: 125I-LcrV68-326 plus unlabelled IFN-α2 on U937 cells.
The target in test [12] is human TLR-2 receptor on CD14-positive human thymic epithelial VTEC2.HS cells (human) (UniProt O60603). As to the kind of experiment: 125I radioligand on VTEC2.HS cells; binding not detectable.
Sequence of human TLR-2 receptor on CD14-positive human thymic epithelial VTEC2.HS cells (human) (O60603 21-784): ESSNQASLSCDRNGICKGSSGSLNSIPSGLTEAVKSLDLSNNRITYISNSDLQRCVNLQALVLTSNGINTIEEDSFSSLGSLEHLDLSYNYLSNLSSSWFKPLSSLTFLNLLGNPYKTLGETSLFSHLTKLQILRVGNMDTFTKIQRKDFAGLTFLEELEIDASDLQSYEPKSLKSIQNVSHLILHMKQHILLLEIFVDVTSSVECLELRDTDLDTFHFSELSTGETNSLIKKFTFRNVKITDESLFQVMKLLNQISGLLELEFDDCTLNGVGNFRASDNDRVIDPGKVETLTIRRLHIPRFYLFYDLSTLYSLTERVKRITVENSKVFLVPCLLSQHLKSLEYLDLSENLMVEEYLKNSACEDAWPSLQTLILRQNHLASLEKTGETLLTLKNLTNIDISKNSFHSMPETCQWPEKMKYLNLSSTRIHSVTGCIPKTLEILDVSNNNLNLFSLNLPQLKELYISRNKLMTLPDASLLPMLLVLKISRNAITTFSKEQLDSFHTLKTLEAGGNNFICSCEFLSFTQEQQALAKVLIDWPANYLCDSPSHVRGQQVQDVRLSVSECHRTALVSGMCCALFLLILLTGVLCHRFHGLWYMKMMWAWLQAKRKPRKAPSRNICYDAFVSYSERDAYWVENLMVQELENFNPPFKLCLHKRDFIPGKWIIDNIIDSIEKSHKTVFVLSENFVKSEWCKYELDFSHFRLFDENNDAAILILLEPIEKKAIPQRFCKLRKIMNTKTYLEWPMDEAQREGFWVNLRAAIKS

Sequence of IFN-γ receptor on human cells (no IFN-γ added) (human) (P15260 18-489): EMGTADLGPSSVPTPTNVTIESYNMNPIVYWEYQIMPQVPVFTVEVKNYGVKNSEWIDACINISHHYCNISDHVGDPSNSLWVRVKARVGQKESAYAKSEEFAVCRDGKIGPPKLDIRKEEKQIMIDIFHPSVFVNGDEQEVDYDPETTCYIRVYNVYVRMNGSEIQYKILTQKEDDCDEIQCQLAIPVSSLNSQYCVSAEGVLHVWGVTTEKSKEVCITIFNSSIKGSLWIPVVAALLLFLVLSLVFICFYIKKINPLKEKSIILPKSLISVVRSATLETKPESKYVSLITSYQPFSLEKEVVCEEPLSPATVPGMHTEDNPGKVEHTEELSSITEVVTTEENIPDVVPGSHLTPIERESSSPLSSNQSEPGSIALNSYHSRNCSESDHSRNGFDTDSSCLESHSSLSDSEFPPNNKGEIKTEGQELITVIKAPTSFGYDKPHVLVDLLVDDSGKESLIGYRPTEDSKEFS

What is called Kd is the free concentration of one partner at which half of the binding sites on the other are occupied at equilibrium, for simple one-to-one binding. “LcrV (V antigen) of Yersinia pestis KIM, recombinant, freed of hexahistidine (from UniProt P0C7U7 1-326)”: the Kd in [1] came to 6 pM.
As to “LcrV68-326, N-terminally truncated LcrV (from UniProt P0C7U7 68-326) (other; other documents disagree on this pair)”, the equilibrium dissociation constant (Kd) in test [2] is 1 mM; in test [3], 1 mM; in test [4] it was 1 mM; in [5], 1 mM; in test [6] it was 0.8 nM.
For the substance “LcrV68-326, N-terminally truncated LcrV (from UniProt P0C7U7 68-326)”, the Kd in test [7] is 1 mM; in [8] it was 1 mM; in test [9], 0.55 nM; in test [10], 1 mM; in [11], 1 mM.
For the substance “LcrV (V antigen) of Yersinia pestis KIM, recombinant, freed of hexahistidine (from UniProt P0C7U7 1-326) (other; other documents disagree on this pair)”, the Kd in [12] is 1 mM.
